Experimental findings from patent publication US20240425612A1 are described below.

Assay [1] has as its target hFcγRIIIa-158F-streptavidin-His (human) (UniProt P08637). As to the kind of experiment: BLI. For orientation: BLI is a label-free optical method that tracks binding on a fibre tip over time.
For assay [2], the target named is hFcγRIIIa-158V-streptavidin-His (human) (UniProt P08637). In words: BLI.
Chain of hFcγRIIIa-158V-streptavidin-His (human) (P08637 17-208 F176V): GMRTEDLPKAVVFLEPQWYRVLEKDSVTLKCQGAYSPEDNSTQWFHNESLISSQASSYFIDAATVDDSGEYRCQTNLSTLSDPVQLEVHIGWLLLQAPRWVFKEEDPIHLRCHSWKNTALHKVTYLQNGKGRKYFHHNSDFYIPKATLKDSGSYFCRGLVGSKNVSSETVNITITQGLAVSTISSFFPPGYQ

Chain of hFcγRIIIa-158F-streptavidin-His (human) (P08637 17-208): as the sequence (P08637 17-208 F176V) above, with V160F counted along it

For “Trastuzumab-DE (S239D/I332E) from Xencor”, the Kd in assay [1] was 67.3 nM; in assay [2] it was 46.5 nM.

A word on the Kd: it is the free concentration of one partner at which half of the binding sites on the other are occupied at equilibrium, for simple one-to-one binding. Low readings indicate a tighter complex, high ones a looser complex.
